Patent US20260374857 (published 2026)
Changes are numbered by the printed parent chain. Where two headings read alike, the source gives them in different places. Each block holds one binder with its values, some of them ahead of it.

How the values were obtained:
GnRH Bio-peptide 1 [1] = molecular target: T1, GnRH Bio-peptide 1 (not fully specified); assay: ELISA
T1 chain: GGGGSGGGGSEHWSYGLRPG

GnRH Bio-peptide 2 [2] = molecular target: T2, GnRH Bio-peptide 2 (not fully specified); assay: ELISA
T2 chain: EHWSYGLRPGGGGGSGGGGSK

GnRH Bio-peptide 1 [3] = molecular target: T1, GnRH Bio-peptide 1; assay: ELISA
GnRH Bio-peptide 1 [4] = molecular target: T1, GnRH Bio-peptide 1; assay: ELISA
GnRH Bio-peptide 1 [5] = molecular target: T1, GnRH Bio-peptide 1; assay: SPR
GnRH Bio-peptide 1 [6] = molecular target: T1, GnRH Bio-peptide 1; assay: ELISA
GnRH Bio-peptide 2 [7] = molecular target: T2, GnRH Bio-peptide 2; assay: ELISA
GnRH Bio-peptide 2 [8] = molecular target: T2, GnRH Bio-peptide 2; assay: SPR
GnRH Bio-peptide 1 [9] = molecular target: T1, GnRH Bio-peptide 1; assay: ELISA
GnRH Bio-peptide 1 [10] = molecular target: T1, GnRH Bio-peptide 1; assay: ELISA
GnRH Bio-peptide 1 [11] = molecular target: T1, GnRH Bio-peptide 1; assay: ELISA

B2: 09Tm2 (antibody, V domains shown)
VH: DVQLVESGGGLVQPGGSLRLSCAASGRTFSGYAMGWFRQAPGKEREFVAAIRFSGGSTSYADSVKGRFTISRDNAKNTVYLQMNSLKPEDTAVYYCAADRGPSGSYYYPDYWGQGTQVTVSS
EC50 (GnRH Bio-peptide 1 [1]): 1.37 nM
EC50 (GnRH Bio-peptide 2 [2]): 1.99 nM

B4: 09Tm1 (antibody, V domains shown)
VH: B2 VH with F53W
EC50 (GnRH Bio-peptide 1 [1]): 0.99 nM
EC50 (GnRH Bio-peptide 2 [2]): 1.91 nM

B5: Clone 1 (pGnRH-001) (antibody, V domains shown)
VH: QVQLVESGGGLVQAGGSVRLSCTASGRTFNNYVLGWFRQTPGKEREFVAAIRGTGSTTHADSVKGRFTISRDNAKNTVYLQMNSLKPEDTAVYYCAADDAYYPGNLRPQYWGQGTQVTVSS
Kd (GnRH Bio-peptide 1 [5]): 13.5 nM
EC50 (GnRH Bio-peptide 1 [6]): 0.41 nM
EC50 (GnRH Bio-peptide 2 [7]): 0.3 nM
Kd (GnRH Bio-peptide 2 [8]): 7.1 nM
EC50 (GnRH Bio-peptide 1 [9]): 14 nM
EC50 (GnRH Bio-peptide 1 [10]): 4 nM
EC50 (GnRH Bio-peptide 1 [11]): 1.27 nM

Next, values leading:

EC50 (GnRH Bio-peptide 1 [1]): 8.16 nM
EC50 (GnRH Bio-peptide 2 [2]): 0.36 nM
EC50 (GnRH Bio-peptide 1 [3]): 14.4 nM
B1: Clone 9 (pGnRH-009) (antibody, V domains shown)
VH: B2 VH with D1E, P14S, R19G, F53W

binding result (GnRH Bio-peptide 1 [4]): no binding
B3: Clone 9 Ala scanning 1 (antibody, V domains shown)
VH: B2 VH with D1E, P14S, R19G, F53W, D99A

EC50 (GnRH Bio-peptide 1 [9]): 415000 nM
B6: Clone 19 (pGnRH-019) (antibody, V domains shown)
VH: B5 VH with V18L, G53W, T57N
